These results are taken from US20240116985A1 (published 2024).

The target of test [1] is T1, full-length beta-Catenin (Uniprot ID P35222) (Homo sapiens (Human), UniProt P35222 2-781).
T1 construct: the AlphaScreen assay uses a Histidine (Nickel Chelate) detection kit, so a His tag is likely there; also called B-Catenin; bCat
T1 sequence: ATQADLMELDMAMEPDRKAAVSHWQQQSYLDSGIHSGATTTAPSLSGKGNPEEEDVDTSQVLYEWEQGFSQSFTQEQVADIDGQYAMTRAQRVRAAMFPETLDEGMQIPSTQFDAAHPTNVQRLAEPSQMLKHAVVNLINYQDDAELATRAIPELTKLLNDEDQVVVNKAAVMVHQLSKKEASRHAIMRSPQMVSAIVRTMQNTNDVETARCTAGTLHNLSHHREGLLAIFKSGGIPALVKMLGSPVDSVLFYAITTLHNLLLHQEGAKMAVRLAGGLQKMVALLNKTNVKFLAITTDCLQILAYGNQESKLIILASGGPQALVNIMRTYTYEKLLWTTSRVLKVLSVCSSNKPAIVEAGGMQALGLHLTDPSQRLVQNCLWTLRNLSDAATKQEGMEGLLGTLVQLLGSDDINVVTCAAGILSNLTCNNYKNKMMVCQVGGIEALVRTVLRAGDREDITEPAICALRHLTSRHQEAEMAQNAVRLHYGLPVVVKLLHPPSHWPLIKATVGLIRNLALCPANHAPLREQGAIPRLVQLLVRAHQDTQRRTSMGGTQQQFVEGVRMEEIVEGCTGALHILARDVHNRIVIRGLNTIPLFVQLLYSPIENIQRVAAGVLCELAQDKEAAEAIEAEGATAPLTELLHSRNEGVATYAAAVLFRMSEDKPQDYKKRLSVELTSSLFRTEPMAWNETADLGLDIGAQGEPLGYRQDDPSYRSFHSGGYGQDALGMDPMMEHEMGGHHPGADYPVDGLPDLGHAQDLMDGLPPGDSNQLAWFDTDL
Description: fluorescence polarization competition; full-length beta-catenin with 5FAM-TCF4(10-53) probe as competitor. Here is the method: (§1) The plate was incubated protected from light for 60 minutes at 20° C. prior to read. Reads were performed on a CLARIOstar plate reader (BMG Labtech) in duplicate, and data were fitted to a 1:1 binding model with hill slope using an in-house script. All provided concentrations are final concentrations.
In general terms: Polarisation of emitted light reports the rotation of a fluorescent probe.

Test [2] addresses T1, full-length beta-Catenin (Uniprot ID …). Briefly: AlphaScreen competition; full-length beta-catenin with biotin-TCF4(10-53) probe as competitor. On the procedure: Equal volume of the titrated peptide was added to the plate and incubated for 15 minutes at 20° C. Then 4 uL of donor and 4 uL acceptor beads at 10 ug/mL were added to the plate, for a 16 uL reaction pool and protected from light for 60 minutes at 20° C. prior to read. Reads were performed on a CLARIOstar plate reader (BMG Labtech) in duplicate, and data were fitted to a 1:1 binding model with hill slope using an in-house script. All provided concentrations are final concentrations.
On the technique in general: Alpha assays give light when donor and acceptor beads are brought close together.

The target in test [3] is T2, full-length beta-Catenin (Uniprot ID P35222) (Homo sapiens (Human), UniProt P35222 2-781).
T2 construct: No tag is stated for the FP assay; also called bCat; B-Catenin
T2 sequence: T1 sequence
Briefly: fluorescence polarization competition; full-length beta-catenin with 5FAM-TCF4(10-53) probe as competitor. On the procedure: as §1

Starred links: 1 amine or outer side, 2 acyl side, 3 side chain; linkers in the order of their positions; H or OH if unused. Positions of bridges follow the written chain, without caps; N, C: chain ends. Non-standard residues stand in square brackets, D forms with d. Primed or numbered codes have the meaning given here. RdN(3) = (R)-4-(((allyloxy)carbonyl)(methyl)amino)-2-amino-2-methylbutanoic acid, stapling residue, C=CCOC(=O)N(C)CC[C@@](C)(N[*:1])C(=O)[*:2]; RdN″ = (R)-4-(((allyloxy)carbonyl)(methyl)amino)-2-amino-2-methylbutanoic acid (stapling residue), C=CCOC(=O)N(C)CC[C@@](C)(N[*:1])C(=O)[*:2]; B5(17) = 2,2-bis(4-pentenyl)glycine = 2-amino-2-(pent-4-en-1-yl)hept-6-enoic acid, stitching residue, C=CCCCC(CCCC=C)(N[*:1])C(=O)[*:2]; B5(4) = 2,2-bis(4-pentenyl)glycine = 2-amino-2-(pent-4-en-1-yl)hept-6-enoic acid (stitching residue), C=CCCCC(CCCC=C)(N[*:1])C(=O)[*:2]; B5(6) = 2-amino-2-(pent-4-en-1-yl)hept-6-enoic acid (bis(4-pentenyl)glycine), stitching residue, C=CCCCC(CCCC=C)(N[*:1])C(=O)[*:2]; RdN = (R)-4-(((allyloxy)carbonyl)(methyl)amino)-2-amino-2-methylbutanoic acid, C=CCOC(=O)N(C)CC[C@@](C)(N[*:1])C(=O)[*:2]; B5(19) = 2-amino-2-(pent-4-en-1-yl)hept-6-enoic acid (bis(4-pentenyl)glycine), C=CCCCC(CCCC=C)(N[*:1])C(=O)[*:2]; Qui = (S)-2-amino-3-(quinolin-2-yl)propanoic acid, O=C([C@H](Cc1ccc2ccccc2n1)N[*:1])[*:2]; S7 = C[C@@](CCCCCC=[*:3])(N[*:1])C(=O)[*:2]; 2Nal = N[C@@H](Cc1ccc2ccccc2c1)C(=O)O; Bta = N[C@@H](Cc1csc2ccccc12)C(=O)O; αAllylPro = C=CC[C@@]1(C(=O)O)CCCN1; S8 = C=CCCCCCC[C@](C)(N)C(=O)O; hSer = N[C@@H](CCO)C(=O)O; Aib = CC(C)(N)C(=O)O

Take Ac-[αAllylPro]DA[B5(4)]DEAAFV[S8]F[Bta]Q-NH2 (staple 1-4, 4-11, stapled peptide composition) [I-144]: the results for the EC50 in test [1] and in test [2] were 146 nM and 66 nM, respectively.

B1: I-154 (peptide)
peptide: ADIXDEAAFAXFWA
modifications: not fully specified; as printed: Ac-Ala-Asp-Ile-RdN-Asp-Glu-Ala-Ala-Phe-Ala-S7-Phe-Trp-Ala-NH2; N-terminal acetyl, C-terminal amide; RdN(4), S7(11); staple RdN-S7 by olefin metathesis
notes: stapled peptide
Take B1: the EC50 in test [1] was 5000 nM; in test [2] it was 828 nM. With Ac-ADI[RdN″]DEAAFA[S7]FWH-NH2 (staple 4-11, stapled peptide composition) [I-152], the EC50 in test [1] was found to be 5000 nM; in test [2], 752 nM. For Ac-ADI[RdN(3)]DEAAFQ[S7]FWA-NH2 (staple 4-11, stapled peptide composition) [I-153] the same measures were 2140 nM and 153 nM.

B2: I-492 (peptide)
peptide: Ac-[αAllylPro]DA[B5(17)]DEAAFQ[S8]F[Bta][hSer]-NH2
modifications: staple 1-4, 4-11; also: later eluting HPLC peak, E/Z not assigned
notes: Stapled peptide; this is the later eluting HPLC peak (staple isomer composition)
For B2, the IC50 in test [3] came out at 53 nM.

B3: I-497 (peptide)
peptide: Ac-[αAllylPro]DA[B5(6)][hSer]EAAFQ[S8]F[Bta]Q-NH2
modifications: staple 1-4, 4-11; not fully specified; printed as Ac-PL3-Asp-Ala-B5-Hse-Glu-Ala-Ala-Phe-Gln-S8-Phe-BztA-Gln-NH2
notes: Stapled peptide; this is the second eluting HPLC peak (staple isomer composition)
Consider B3, for which the IC50 in test [3] worked out at 5000 nM.

B4: I-498 (peptide)
peptide: Ac-[αAllylPro]DA[B5(6)][hSer]EAAFQ[S8]F[Bta]Q-NH2
modifications: staple 1-4, 4-11; not fully specified; printed as Ac-PL3-Asp-Ala-B5-Hse-Glu-Ala-Ala-Phe-Gln-S8-Phe-BztA-Gln-NH2
notes: Stapled peptide; this is the third eluting HPLC peak (staple isomer composition)
The molecule B4 yielded an IC50 in test [3] of 5000 nM.

B5: I-496 (peptide)
peptide: Ac-[αAllylPro]DA[B5(17)][hSer]EAAFQ[S8]F[Bta]Q-NH2
modifications: staple 1-4, 4-11; not fully specified; printed as Ac-PL3-Asp-Ala-B5-Hse-Glu-Ala-Ala-Phe-Gln-S8-Phe-BztA-Gln-NH2
notes: Stapled peptide; this is the first eluting HPLC peak (staple isomer composition)
B5 registered a half-maximal inhibitory concentration (IC50) in test [3] of 5000 nM.

B6: I-493 (peptide)
peptide: XDAXDEAAFQXFXS
modifications: not fully specified; Ac-PL3-Asp-Ala-B5-Asp-Glu-Ala-Ala-Phe-Gln-S8-Phe-BztA-DSer-NH2; N-terminal acetyl, C-terminal amide; PL3(1)-B5(4) and B5(4)-S8(11) stapled by olefin metathesis; BztA at 13; D-Ser at 14
notes: Stapled (stitched) peptide composition
As to B6, the IC50 in test [3] stood at 88 nM. Regarding Ac-[αAllylPro]DA[B5(4)]DEAAFV[S8]FWA-NH2 (staple 1-4, 4-11, stapled (stitched) peptide composition) [I-135], the EC50 in test [1] came out at 1870 nM; in test [2] it was 278 nM.

B7: I-173 (peptide)
peptide: XDAXDXAAFVXFWQ
modifications: not fully specified; as printed: Ac-PL3-Asp-Ala-B5-Asp-EtGA-Ala-Ala-Phe-Val-S8-Phe-Trp-Gln-NH2; N-terminal acetyl, C-terminal amide; PL3(1), B5(4), EtGA(6), S8(11); staples PL3-B5 and B5-S8 by olefin metathesis
notes: stapled peptide
The molecule B7 registered an EC50 in test [1] of 3120 nM. As for Ac-[αAllylPro]DA[B5(19)]DEAAFV[S8]F[2Nal]Q-NH2 (staple 1-4, 4-11, stapled peptide composition) [I-140], the EC50 in test [1] was found to be 2270 nM; in test [2], 934 nM. For Ac-[αAllylPro]DA[B5(4)]DEAAFV[S8]F[Qui]Q-NH2 (staple 1-4, 4-11, stapled peptide composition) [I-143] the same measures were 2270 nM and 733 nM. Ac-ADI[RdN″]DEAAFQ[S7]FW-NH2 (staple 4-11, stapled peptide composition) [I-148]: the EC50 was determined as 2770 nM in test [1] and 398 nM in test [2].

On to Ac-[Aib]DI[RdN]DEAAFQ[S7]FW-NH2 (staple 4-11, stapled peptide composition) [I-147], for which the figures for the EC50 in test [1] and in test [2] were 1640 nM and 328 nM, respectively.

B8: I-172 (peptide)
peptide: XDAXDXAAFVXFWQ
modifications: not fully specified; as printed: Ac-PL3-Asp-Ala-B5-Asp-EtGA-Ala-Ala-Phe-Val-S8-Phe-Trp-Gln-NH2; N-terminal acetyl, C-terminal amide; PL3(1), B5(4), EtGA(6), S8(11); staples PL3-B5 and B5-S8 by olefin metathesis
notes: stapled peptide
B8 registered a concentration giving a half-maximal response (EC50) in test [1] of 5000 nM.

What is called EC50 is the concentration giving half of the maximal effect. A lower EC50 goes with higher potency in that assay. Usually IC50 stands for the concentration that inhibits the measured activity by half. Read a low IC50 as higher potency.
